The labels stand for the following.
B1: Progranulin (Homo sapiens), P28799 (parent)
chain: MWTLVSWVALTAGLVAGTRCPDGQFCPVACCLDPGGASYSCCRPLLDKWPTTLSRHLGGPCQVDAHCSAGHSCIFTVSGTSSCCPFPEAVACGDGHHCCPRGFHCSADGRSCFQRSGNNSVGAIQCPDSQFECPDFSTCCVMVDGSWGCCPMPQASCCEDRVHCCPHGAFCDLVHTRCITPTGTHPLAKKLPAQRTNRAVALSSSVMCPDARSRCPDGSTCCELPSGKYGCCPMPNATCCSDHLHCCPQDTVCDLIQSKCLSKENATTDLLTKLPAHTVGDVKCDMEVSCPDGYTCCRLQSGAWGCCPFTQAVCCEDHIHCCPAGFTCDTQKGTCEQGPHQVPWMEKAPAHLSLPDPQALKRDVPCDNVSSCPSSDTCCQLTSGEWGCCPIPEAVCCSDHQHCCPQGYTCVAEGQCQRGSEIVAGLEKMPARRASLSHPRDIGCDQHTSCPVGQTCCPSLGGSWACCQLPHAVCCEDRQHCCPAGYTCNVKARSCEKEVVSAQPATFLARSPHVGVKDVECGEGHFCHDNQTCCRDNRQGWACCPYRQGVCCADRRHCCPAGFRCAARGTKCLRREAPRWDAPLRDPALRQLL
partner: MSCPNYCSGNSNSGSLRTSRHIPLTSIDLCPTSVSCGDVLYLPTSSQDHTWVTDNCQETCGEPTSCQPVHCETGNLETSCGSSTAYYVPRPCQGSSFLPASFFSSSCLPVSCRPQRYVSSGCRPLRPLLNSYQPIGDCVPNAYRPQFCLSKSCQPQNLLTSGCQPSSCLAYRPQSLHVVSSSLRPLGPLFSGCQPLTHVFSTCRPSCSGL
B2: mRNA-decapping enzyme 1A (Homo sapiens), Q9NPI6 (parent)
chain: MEALSRAGQEMSLAALKQHDPYITSIADLTGQVALYTFCPKANQWEKTDIEGTLFVYRRSASPYHGFTIVNRLNMHNLVEPVNKDLEFQLHEPFLLYRNASLSIYSIWFYDKNDCHRIAKLMADVVEEETRRSQQAARDKQSPSQANGCSDHRPIDILEMLSRAKDEYERNQMGDSNISSPGLQPSTQLSNLGSTETLEEMPSGSQDKSAPSGHKHLTVEELFGTSLPKEQPAVVGLDSEEMERLPGDASQKEPNSFLPFPFEQLGGAPQSETLGVPSAAHHSVQPEITTPVLITPASITQSNEKHAPTYTIPLSPVLSPTLPAEAPTAQVPPSLPRNSTMMQAVKTTPRQRSPLLNQPVPELSHASLIANQSPFRAPLNVTNTAGTSLPSVDLLQKLRLTPQHDQIQTQPLGKGAMVASFSPAAGQLATPESFIEPPSKTAAARVAASASLSNMVLAPLQSMQQNQDPEVFVQPKVLSSAIPVAGAPLVTATTTAVSSVLLAPSVFQQTVTRSSDLERKASSPSPLTIGTPESQRKPSIILSKSQLQDTLIHLIKNDSSFLSTLHEVYLQVLTKNKDNHNL
partner: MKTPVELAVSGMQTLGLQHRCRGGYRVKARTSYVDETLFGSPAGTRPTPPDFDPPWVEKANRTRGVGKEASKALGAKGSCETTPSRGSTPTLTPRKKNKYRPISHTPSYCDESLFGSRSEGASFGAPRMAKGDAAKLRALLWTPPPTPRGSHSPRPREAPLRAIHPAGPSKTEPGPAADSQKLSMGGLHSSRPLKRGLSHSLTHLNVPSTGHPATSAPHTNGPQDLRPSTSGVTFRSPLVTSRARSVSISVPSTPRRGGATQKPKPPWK
B3: Low-density lipoprotein receptor class A domain-containing protein 1 (Homo sapiens), Q5T700 (parent)
chain: MNKVFPQGENGYTAAESKAHPGGEAGGGHLCCSRRGACLSASLLLLLATVAALIALVTILGLPSCTPGAQACITLTNRTGFLCHDQRSCIPASGVCDGVRTCTHGEDEDESLCRDVPQSLPHFLVAHCGDPASWIYSDQKCDGTNNCGDCSDELSPVTVCPPCGPGWWRCPSTFFKYCDCIPRHLCRDHVQHCSDWSDEYACPGP
partner: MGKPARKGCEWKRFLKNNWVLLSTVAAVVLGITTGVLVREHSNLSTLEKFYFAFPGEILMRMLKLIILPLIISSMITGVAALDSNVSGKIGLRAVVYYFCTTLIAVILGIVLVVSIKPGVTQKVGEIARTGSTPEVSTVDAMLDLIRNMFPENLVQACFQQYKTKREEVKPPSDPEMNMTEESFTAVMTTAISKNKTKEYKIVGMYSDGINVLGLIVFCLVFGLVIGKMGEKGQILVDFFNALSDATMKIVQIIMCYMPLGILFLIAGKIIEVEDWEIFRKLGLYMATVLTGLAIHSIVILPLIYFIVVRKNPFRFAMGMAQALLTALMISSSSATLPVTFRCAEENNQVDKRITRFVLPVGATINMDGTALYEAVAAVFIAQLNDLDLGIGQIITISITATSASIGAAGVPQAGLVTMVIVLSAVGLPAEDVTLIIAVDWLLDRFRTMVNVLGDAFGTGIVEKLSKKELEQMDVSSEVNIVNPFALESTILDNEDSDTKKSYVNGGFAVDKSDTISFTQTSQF

Variants of B1 are the subject of the first experiment. Particulars: with kr261_human KRTAP26-1, Q6PEX3.
In the case of MWTLVSWVALTAGLVAGTRCPDGQFCPVACCLDPGGASYSCCRPLLDKWPTTLSRHLGGPCQVDAHCSAGHSCIFTVSGTSSCCPFPEAVACGDGHHCCPRGFHCSADGRSCFQRSGNNSVGAIQCPDSQFECPDFSTCCVMVDGSWGCCPMPQASCCEDRVHCCPHGAFCDLVHTRCITPTGTHPLAKKLPAQRTNRAVALSSSVMCPDARSRCPDGSTCCELPSGKYGCCPMPNATCCSDHLHCCPQDTVCDLIQSKCLSKENATTDLLTKLPAHTVGDVKCDMEVSCPDGYTCCRLQSGAWGCCPFTQAVCCEDHIHCCPAGFTCDTQKGTCEQGPHQVPWMEKAPAHLSLPDPQALKRDVPCDNVSSCPSSDTCCQLTSGEWGCCPIPEAVCCSDHQHCCPQGYTCVAEGQCQRGSEIVAGLEKMPARWASLSHPRDIGCDQHTSCPVGQTCCPSLGGSWACCQLPHAVCCEDRQHCCPAGYTCNVKARSCEKEVVSAQPATFLARSPHVGVKDVECGEGHFCHDNQTCCRDNRQGWACCPYRQGVCCADRRHCCPAGFRCAARGTKCLRREAPRWDAPLRDPALRQLL [R433W], the “effect of a mutation on the interaction” value is listed as “with no effect”.

On to MWTLVSWVALTAGLVAGTRCPDGQFCPVACCLDPGGASYSCCRPLLDKWPTTLSRHLGGPCQVDAHCSAGHSCIFTVSGTSSCCPFPEAVACGDGHHCCPRGFHCSADGRSCFQRSGNNSVGAIQCPDSQFECPDFSTCCVMVDGSWGCCPMPQASCCEDRVHCCPHGAFCDLVHTRCITPTGTHPLAKKLPAQRTNRAVALSSSVMCPDARSRCPDGSTCCELPSGKYGCCPMPNATCCSDHLHCCPQDTVCDLIQSKCLSKENATTDLLTKLPAHTVGDVKCDMEVSCPDGYTCCRLQSGAWGCCPFTQAVCCEDHIHCCPAGFTCDTQKGTCEQGPHQVPWMEKAPAHLSLPDPQALKRDVPCDNVSSCPSSDTCCQLTSGEWGCCPIPEAVCCSDHQHCCPQGYTCVAEGQCQRGSEIVAGLEKMPARRASLSHPRDIGCDQHTSCPVGQTCCPSLGGSWACCQLPHAVCCEDRQHCCPAGYTCNVKARSCEKEVVSAQPATFLARSPHVAVKDVECGEGHFCHDNQTCCRDNRQGWACCPYRQGVCCADRRHCCPAGFRCAARGTKCLRREAPRWDAPLRDPALRQLL [G515A], for which the “effect of a mutation on the interaction” value is “with no effect”.

Variants of B2 are the subject of a further experiment. Particulars: with rita1_human RITA1, Q96K30.
For MEALSRAGQEMSLAALKQHDPYITSIADLTGQVALYTFCPKANQWEKTDIEGTLFVYRRSASPYHGFTIVNRLNMHNLVEPVNKDLEFQLHEPFLLYRNASLSIYSIWFYDKNDCHRIAKLMADVVEEETRRSQQAARDKQSPSQANGCSDHRPIDILEMLSRAKDEYERNQMGDSNISSPGLQPSTQLSNLGSTETLEEMPSGSQDKSAPSGHKHLTVEELFGTSLPKEQPAVVGLDSEEMERLPGDASQKEPNSFLPFPFEQLGGAPQSETLGVPSAAHHSVQPEITTPVLITPGSITQSNEKHAPTYTIPLSPVLSPTLPAEAPTAQVPPSLPRNSTMMQAVKTTPRQRSPLLNQPVPELSHASLIANQSPFRAPLNVTNTAGTSLPSVDLLQKLRLTPQHDQIQTQPLGKGAMVASFSPAAGQLATPESFIEPPSKTAAARVAASASLSNMVLAPLQSMQQNQDPEVFVQPKVLSSAIPVAGAPLVTATTTAVSSVLLAPSVFQQTVTRSSDLERKASSPSPLTIGTPESQRKPSIILSKSQLQDTLIHLIKNDSSFLSTLHEVYLQVLTKNKDNHNL [A297G], the “effect of a mutation on the interaction” value is reported as “with no effect”.

For the variant MEALSRAGQEMSLAALKQHDPYITSIADLTGQVALYTFCPKANQWEKTDIEGTLFVYRRSASPYHGFTIVNRLNMHNLVEPVNKDLEFQLHEPFLLYRNASLSIYSIWFYDKNDCHRIAKLMADVVEEETRRSQQAARDKQSPSQANGCSDHRPIDILEMLSRAKDEYERNQMGDSNISSPGLQPSTQLSNLGSTETLEEMPSGSQDKSAPSGHKHLTVEELFGTSLPKEQPAVVGLDSEEMERLPGDASQKEPNSFLPFPFEQLGGAPQSETLGVPSAAHHSVQPEITTPVLITPASITQSNEKHAPTYTIPLSPVLSPTLPAEAPTAQVTPSLPRNSTMMQAVKTTPRQRSPLLNQPVPELSHASLIANQSPFRAPLNVTNTAGTSLPSVDLLQKLRLTPQHDQIQTQPLGKGAMVASFSPAAGQLATPESFIEPPSKTAAARVAASASLSNMVLAPLQSMQQNQDPEVFVQPKVLSSAIPVAGAPLVTATTTAVSSVLLAPSVFQQTVTRSSDLERKASSPSPLTIGTPESQRKPSIILSKSQLQDTLIHLIKNDSSFLSTLHEVYLQVLTKNKDNHNL [P332T], the “effect of a mutation on the interaction” value is on record as “with no effect”.

For the variant MEALSRAGQEMSLAALKQHDPYITSIADLTGQVALYTFCPKANQWEKTDIEGTLFVYRRSASPYHGFTIVNRLNMHNLVEPVNKDLEFQLHEPFLLYRNASLSIYSIWFYDKNDCHRIAKLMADVVEEETRRSQQAARDKQSPSQANGCSDHRPIDILEMLSRAKDEYERNQMGDSNISSPGLQPSTQLSNLGSTETLEEMPSGSQDKSAPSGHKHLTVEELFGTSLPKEQPAVVGLDSEEMERLPGDASQKEPNSFLPFPFEQLGGAPQSETLGVPSAAHHSVQPEITTPVLITPASITQSNEKHAPTYTIPLSPVLSPTLPAEAPTAQVPPSLPRNSTMMQAVKTTPRQRSPLLNQPVPELSHASLIANQSPFRAPLNVTNTAGTSLPSVDLLQKLRLTPQHDQIQTQPLGKGAMVASFSPAAGQLATPESFIEPPSKTAAARVAASASLSNMVLAPLQSMQQNQDPEVFVHPKVLSSAIPVAGAPLVTATTTAVSSVLLAPSVFQQTVTRSSDLERKASSPSPLTIGTPESQRKPSIILSKSQLQDTLIHLIKNDSSFLSTLHEVYLQVLTKNKDNHNL [Q474H], the “effect of a mutation on the interaction” value is “with no effect”.

Variants of B3 are the subject of another experiment. Particulars: with eaa3_human SLC1A1, P43005.
For MNKVFPQGENGYTAAESKAHPGGEAGGGHLCCSRRGACLSASLLLLLATVAALIALVTILGLPSCTPGAQACITLTNRTGFLCHDQRSCIPASGVCDGVRTCTHGEDKDESLCRDVPQSLPHFLVAHCGDPASWIYSDQKCDGTNNCGDCSDELSPVTVCPPCGPGWWRCPSTFFKYCDCIPRHLCRDHVQHCSDWSDEYACPGP [E108K], the “effect of a mutation on the interaction” value is listed as “with no effect”.

MNKVFPQGENGYTAAESKAHPGGEAGGGHLCCSRRGACLSASLLLLLATVAALIALVTILGLPSCTPGAQACITLTNRTGFLCHDQRSCIPASGVCDGVRTCTHSEDEDESLCRDVPQSLPHFLVAHCGDPASWIYSDQKCDGTNNCGDCSDELSPVTVCPPCGPGWWRCPSTFFKYCDCIPRHLCRDHVQHCSDWSDEYACPGP [G105S]: the “effect of a mutation on the interaction” value is reported as “with no effect”.

Values taken from IntAct's records for PubMed 31515488.
